Reference: publication PMC3557450

Molecular target: soluble recombinant pMHC II I-E^d/λ2^315 (not stated | mouse)
Assay: SPR

Kd [µM] | Substance
7 | soluble scTCR Vαβ 4B2A1 mutant PRS (L115P^linker/K199R^Vβ/L214S^Vβ)
5.8 | soluble scTCR Vαβ 4B2A1 mutant PS (L115P^linker/L214S^Vβ)
